Test in all cases: cell-based or functional assay
Experiment [1] addresses T1, IFN-γ receptor (IFNGR1 and IFNGR2) (UniProt P15260).
T1 sequence (looked up) 1: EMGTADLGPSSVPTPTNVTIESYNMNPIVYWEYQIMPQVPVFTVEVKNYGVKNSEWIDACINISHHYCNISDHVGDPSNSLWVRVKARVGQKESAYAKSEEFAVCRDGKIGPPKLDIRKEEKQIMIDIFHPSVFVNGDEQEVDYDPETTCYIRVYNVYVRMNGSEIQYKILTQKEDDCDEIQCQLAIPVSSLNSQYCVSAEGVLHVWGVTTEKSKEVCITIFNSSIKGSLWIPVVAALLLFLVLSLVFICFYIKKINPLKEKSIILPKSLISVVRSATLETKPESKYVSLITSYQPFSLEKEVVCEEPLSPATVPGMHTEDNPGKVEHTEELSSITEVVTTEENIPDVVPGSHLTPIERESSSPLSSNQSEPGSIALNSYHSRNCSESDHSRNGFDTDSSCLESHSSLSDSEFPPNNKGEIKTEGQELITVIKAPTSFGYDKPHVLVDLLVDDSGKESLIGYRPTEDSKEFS
T1 sequence (looked up) 2: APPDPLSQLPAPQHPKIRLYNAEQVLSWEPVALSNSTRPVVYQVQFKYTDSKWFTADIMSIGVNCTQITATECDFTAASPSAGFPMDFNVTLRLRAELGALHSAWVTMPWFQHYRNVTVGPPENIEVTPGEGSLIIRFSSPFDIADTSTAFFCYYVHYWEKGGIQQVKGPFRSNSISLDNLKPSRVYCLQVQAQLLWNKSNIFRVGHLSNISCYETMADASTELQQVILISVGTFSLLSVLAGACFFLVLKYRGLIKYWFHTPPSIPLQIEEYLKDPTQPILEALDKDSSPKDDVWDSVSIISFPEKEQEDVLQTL

The target of experiment [2] is IL-10 receptor (hIL-10Rα and hIL-10Rβ) (human) (UniProt Q13651).
IL-10 receptor (hIL-10Rα and hIL-10Rβ) (human), sequence (Q13651 22-578, chain 1 of 2): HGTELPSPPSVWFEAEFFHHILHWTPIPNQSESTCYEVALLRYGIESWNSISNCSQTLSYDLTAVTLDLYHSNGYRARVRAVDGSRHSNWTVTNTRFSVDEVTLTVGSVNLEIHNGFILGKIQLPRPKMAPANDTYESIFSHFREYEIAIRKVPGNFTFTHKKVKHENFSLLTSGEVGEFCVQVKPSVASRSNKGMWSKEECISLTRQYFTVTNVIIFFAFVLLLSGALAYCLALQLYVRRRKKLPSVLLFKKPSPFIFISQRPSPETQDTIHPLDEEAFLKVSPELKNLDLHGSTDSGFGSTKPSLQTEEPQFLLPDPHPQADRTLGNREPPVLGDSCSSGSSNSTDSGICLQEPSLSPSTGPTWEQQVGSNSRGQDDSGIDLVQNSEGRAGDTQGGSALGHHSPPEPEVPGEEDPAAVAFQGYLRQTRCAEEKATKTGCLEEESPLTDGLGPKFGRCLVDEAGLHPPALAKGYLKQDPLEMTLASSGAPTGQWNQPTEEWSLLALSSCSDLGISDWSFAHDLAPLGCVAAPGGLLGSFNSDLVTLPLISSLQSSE
IL-10 receptor (hIL-10Rα and hIL-10Rβ) (human), sequence (Q08334 20-325, chain 2 of 2, further chain): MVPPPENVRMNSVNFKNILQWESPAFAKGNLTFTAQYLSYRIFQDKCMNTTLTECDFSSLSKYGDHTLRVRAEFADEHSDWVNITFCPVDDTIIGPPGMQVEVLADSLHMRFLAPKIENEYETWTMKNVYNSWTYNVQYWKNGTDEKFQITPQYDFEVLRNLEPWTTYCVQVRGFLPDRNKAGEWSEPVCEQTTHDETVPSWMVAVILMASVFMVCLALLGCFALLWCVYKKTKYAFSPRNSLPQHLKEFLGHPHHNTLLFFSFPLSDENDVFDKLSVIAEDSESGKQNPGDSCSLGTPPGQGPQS
For experiment [3], the target named is human IL-12 receptor complex (IL-12Rβ1 and IL-12Rβ2) (human) (UniProt P42701).
human IL-12 receptor complex (IL-12Rβ1 and IL-12Rβ2) (human), sequence (Q99665 24-862, chain 2 of 2, other chains not shown): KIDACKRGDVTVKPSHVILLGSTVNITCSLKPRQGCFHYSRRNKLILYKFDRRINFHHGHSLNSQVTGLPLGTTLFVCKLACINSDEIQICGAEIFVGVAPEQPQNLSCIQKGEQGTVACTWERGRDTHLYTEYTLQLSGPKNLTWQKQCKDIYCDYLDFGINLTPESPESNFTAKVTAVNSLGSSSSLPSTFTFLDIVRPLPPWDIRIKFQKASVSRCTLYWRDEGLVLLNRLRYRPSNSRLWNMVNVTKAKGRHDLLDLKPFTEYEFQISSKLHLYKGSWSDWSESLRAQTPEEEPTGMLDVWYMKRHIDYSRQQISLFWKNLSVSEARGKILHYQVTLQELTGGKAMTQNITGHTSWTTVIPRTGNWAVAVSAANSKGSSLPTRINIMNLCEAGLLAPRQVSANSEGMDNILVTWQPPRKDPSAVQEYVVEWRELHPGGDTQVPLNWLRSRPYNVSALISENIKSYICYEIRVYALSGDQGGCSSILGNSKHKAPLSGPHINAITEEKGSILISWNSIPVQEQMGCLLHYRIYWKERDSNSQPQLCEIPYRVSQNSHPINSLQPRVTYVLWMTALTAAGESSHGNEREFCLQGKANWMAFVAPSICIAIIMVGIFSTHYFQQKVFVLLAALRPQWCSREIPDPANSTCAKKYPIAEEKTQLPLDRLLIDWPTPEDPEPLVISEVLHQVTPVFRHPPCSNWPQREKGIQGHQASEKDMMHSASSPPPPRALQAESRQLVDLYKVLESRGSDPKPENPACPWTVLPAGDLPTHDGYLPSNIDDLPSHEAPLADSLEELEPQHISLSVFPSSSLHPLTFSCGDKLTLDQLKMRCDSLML
In experiment [4] the target is IL-23 receptor complex (IL-12Rβ1 and IL-23R) (UniProt P42701).
IL-23 receptor complex (IL-12Rβ1 and IL-23R), sequence (Q5VWK5 24-629 limits assumed, chain 2 of 2, other chains not shown): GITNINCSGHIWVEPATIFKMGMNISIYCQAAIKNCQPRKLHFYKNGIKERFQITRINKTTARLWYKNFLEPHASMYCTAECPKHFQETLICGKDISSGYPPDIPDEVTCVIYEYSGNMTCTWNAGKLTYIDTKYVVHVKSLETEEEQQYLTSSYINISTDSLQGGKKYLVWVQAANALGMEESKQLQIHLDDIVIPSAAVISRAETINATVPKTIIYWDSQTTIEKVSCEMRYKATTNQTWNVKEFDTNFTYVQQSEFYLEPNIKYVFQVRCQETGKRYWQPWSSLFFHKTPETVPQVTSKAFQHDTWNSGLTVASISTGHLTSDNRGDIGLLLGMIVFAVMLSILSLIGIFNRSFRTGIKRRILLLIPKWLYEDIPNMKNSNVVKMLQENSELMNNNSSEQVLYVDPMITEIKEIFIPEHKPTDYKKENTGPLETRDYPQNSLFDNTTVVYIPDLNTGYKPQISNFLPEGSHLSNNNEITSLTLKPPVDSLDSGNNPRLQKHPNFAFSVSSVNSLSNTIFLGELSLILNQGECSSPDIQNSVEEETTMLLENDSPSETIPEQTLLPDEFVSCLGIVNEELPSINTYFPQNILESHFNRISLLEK

recombinant human IFN-γ (free state), sequence (P01579 24-166 limits assumed): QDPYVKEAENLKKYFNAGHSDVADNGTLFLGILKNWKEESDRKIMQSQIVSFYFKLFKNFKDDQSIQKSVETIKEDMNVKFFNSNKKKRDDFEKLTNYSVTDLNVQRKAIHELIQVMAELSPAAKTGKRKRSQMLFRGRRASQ
recombinant human IL-12, sequence (P29459 23-219 limits assumed): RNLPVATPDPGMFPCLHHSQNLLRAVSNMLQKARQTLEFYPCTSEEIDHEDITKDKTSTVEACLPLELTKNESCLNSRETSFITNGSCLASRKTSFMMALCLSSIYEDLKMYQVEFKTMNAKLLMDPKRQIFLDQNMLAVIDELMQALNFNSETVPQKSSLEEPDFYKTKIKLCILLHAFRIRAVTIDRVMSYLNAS
recombinant human IL-12, sequence (P29460 23-328 limits assumed): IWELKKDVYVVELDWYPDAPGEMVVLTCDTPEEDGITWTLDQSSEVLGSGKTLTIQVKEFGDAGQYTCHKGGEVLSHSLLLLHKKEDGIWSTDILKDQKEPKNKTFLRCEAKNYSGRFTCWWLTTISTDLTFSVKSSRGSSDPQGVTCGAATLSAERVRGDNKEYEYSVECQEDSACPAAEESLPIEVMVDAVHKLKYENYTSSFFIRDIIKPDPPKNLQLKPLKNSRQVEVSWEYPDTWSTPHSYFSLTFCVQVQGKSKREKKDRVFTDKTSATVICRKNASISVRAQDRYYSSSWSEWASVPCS
recombinant human IL-23 (free state), sequence (Q9NPF7 20-189 limits assumed): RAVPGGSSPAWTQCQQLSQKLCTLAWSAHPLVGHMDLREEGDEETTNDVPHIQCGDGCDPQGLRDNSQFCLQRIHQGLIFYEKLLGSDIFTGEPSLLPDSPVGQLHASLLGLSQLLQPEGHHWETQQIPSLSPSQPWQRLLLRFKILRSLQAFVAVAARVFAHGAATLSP
recombinant human IL-23 (free state), sequence (P29460 23-328 limits assumed): as the sequence (P29460 23-328 limits assumed) above

In experiment [1], “recombinant human IFN-γ (free state) (from UniProt P01579 24-166) (ligand)” yielded an IFN-γ signal transduction, HEK-IFN-γ of 100%; an IFN-γ signal transduction, HEK-IFN-γ cells, % of rIFN-γ of 100%; an IFN-γ signal transduction, HEK-IFN-γ-PD-1 of 100%; an IFN-γ signal transduction, HEK-IFN-γ-TIGIT of 100%. In addition, the IFN-γ signal transduction, HEK-PD-1-IFN-γ cells, % of rIFN-γ in experiment [1] was 100%.
For “recombinant human IL-10 (free state) (from UniProt P22301 19-178) (ligand)”, in experiment [2], the IL-10 signal transduction, HEK-IL-10 cells, % of rIL-10 was 100% and the IL-10 signal transduction, HEK-PD-1-IL-10 cells, % of rIL-10 turned out to be 100%.
In experiment [3], “recombinant human IL-12 (from UniProt P29459 23-219; P29460 23-328) (ligand)” returned an IFN-γ release, activated PBMC of 2300 ng/mL; an IL-12 signal transduction, HEK IL-12 of 100%; an IL-12 signal transduction, HEK-IL-12 of 100%; an IL-12 signal transduction, HEK-IL-12-PD-1 of 100%. In experiment [3], this substance came in with an IL-12 signal transduction, HEK-IL-12-PD-1 (high) of 100%; an IL-12 signal transduction, HEK-IL-12-PD-1 (low) of 100%; an IL-12 signal transduction, HEK-IL-12-TIGIT of 100%; an IL-12 signal transduction, HEK-IL-12 cells, % of rIL-12 of 100%. In addition, in experiment [3], the IL-12 signal transduction, HEK-PD-1-IL-12 came out at 100% and the IL-12 signal transduction, HEK-PD-1-IL-12 cells, % of rIL-12 is 100%.
With “recombinant human IL-23 (free state) (from UniProt Q9NPF7 20-189; P29460 23-328) (ligand)”, in experiment [4], the IL-23 signal transduction, HEK-IL-23 cells, % of rIL-23 came to 100% and the IL-23 signal transduction, HEK-PD-1-IL-23 cells, % of rIL-23 worked out at 100%.
